Values belong to the molecule of their own block, whether it stands above or below them.
Assays:
[1] = molecular target: ADD_(ATRX) Y203A mutant (purified, for ITC) (human) (UniProt P46100); assay: ITC
ADDATRX = molecular target: T1, ADDATRX (Homo sapiens, UniProt P46100, F284Y/K251R); assay type: binding; conditions: wild type ADDATRX; Kd n.d. in Fig. 4b
T1 sequence (P46100 167-289 K251R/F284Y): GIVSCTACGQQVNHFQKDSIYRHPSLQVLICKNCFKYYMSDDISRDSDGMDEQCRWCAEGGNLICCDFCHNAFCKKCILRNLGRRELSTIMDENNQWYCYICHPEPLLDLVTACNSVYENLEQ

[2] = molecular target: ADD_(ATRX) (ATRX fragment 167–289) (human) (UniProt P46100); assay: ITC
[3] = molecular target: unmodified H3 tail (as used in the SPR assay); assay: SPR

Molecule: H3_5–13K9me3: synthetic H3 peptide, residues 5–13, Lys9 trimethylated (QTARKSTGG; trimethyl-lysine at 9)
binding in ITC titration (ADDATRX): totally lost

B1: ADD_(ATRX) (as used in the SPR assay) (domain or fragment)
chain: KRGEDGLHGIVSCTACGQQVNHFQKDSIYRHPSLQVLICKNCFKYYMSDDISRDSDGMDEQCRWCAEGGNLICCDFCHNAFCKKCILRNLGRKELSTIMDENNQWYCYICHPEPLLDLVTACNSVFENLEQLLQQNKK
Kd [3]: 3.2 µM

The next lines start with the values.

Kd [1]: 4.6 µM
dH [1]: -4.7 kcal/mol
Molecule: H3_(1–15)K9me3 peptide (from UniProt P68431 2-16)

Kd [2]: 4.9 µM
dH [2]: -12 kcal/mol
Molecule: H3 peptide trimethylated at both Lys4 and Lys9

Reference: paper PMC3130887 (Nature structural & molecular biology, 2011)
